Results taken from patent publication US20100316644A1 (ACCELERON PHARMA, published 2010).

T1: Activin B (UniProt P09529 293-407)
T1 sequence (looked up): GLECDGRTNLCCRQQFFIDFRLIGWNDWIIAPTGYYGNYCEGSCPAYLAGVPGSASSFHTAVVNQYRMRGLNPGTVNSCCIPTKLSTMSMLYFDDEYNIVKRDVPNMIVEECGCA

T2: Activin A (UniProt P08476 311-426)
T2 sequence (looked up): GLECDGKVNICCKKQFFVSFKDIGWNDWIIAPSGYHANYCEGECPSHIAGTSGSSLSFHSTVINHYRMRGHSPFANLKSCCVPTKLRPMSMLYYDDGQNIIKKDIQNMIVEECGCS

B1: ActRIIB(20-134)-hFc (Fc fusion, not shown: a dimerising Fc or GST)
chain: GRGEAETRECIYYNANWELERTNQSGLERCEGEQDKRLHCYASWRNSSGTIELVKKGCWLDDFNCYDRQECVATEENPQVYFCCCEGNFCNERFTHLPEAGGPEVTYEPPPTAPT
notes: The residue range comes from the construct name; also called full-length counterpart ActRIIB(20-134)-hFc
B2: Growth and Differentiation Factor-11 (GDF11) (ligand, UniProt O95390 299-407, looked up)
chain: NLGLDCDEHSSESRCCRYPLTVDFEAFGWDWIIAPKRYKANYCSGQCEYMFMQKYPHTHLVQQANPRGSAGPCCTPTKMSPINMLYFNDKQQIIYGKIPGMVVDRCGCS
notes: also called BMP11

Legend:
Assay in all cases: Biacore, steady-state affinity fit
Activin B = target: T1, Activin B
Excerpt: (§1) Kd values were obtained by steady-state affinity fit due to very rapid association and dissociation of the complex, which prevented accurate determination of kₒₙ and koff.

Activin A = target: T2, Activin A
Excerpt: as §1

ActRIIB(20-134)-hFc = target: B1
Excerpt: as §1

| Kd (Activin B) [nM] | Kd (Activin A) [nM] | Kd (ActRIIB(20-134)-hFc) [nM] | Binder |
| --- | --- | --- | --- |
| 0.012 | 0.016 |  | B1 |
|  |  | 0.036 | B2 |
